# Publication doi:10.1101/2021.03.25.436940
# T1: OsGSTU5 (Oryza sativa, UniProt Q0J294 6-233)
# T1 sequence: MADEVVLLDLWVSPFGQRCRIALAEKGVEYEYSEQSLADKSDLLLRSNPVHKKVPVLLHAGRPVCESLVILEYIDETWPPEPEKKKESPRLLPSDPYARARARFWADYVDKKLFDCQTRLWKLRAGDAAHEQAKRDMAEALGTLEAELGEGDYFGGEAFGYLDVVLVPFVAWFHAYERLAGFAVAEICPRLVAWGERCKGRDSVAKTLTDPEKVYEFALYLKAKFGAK
# Molecular target: T1, OsGSTU5
# Test: EMSA
binder,measurement,value
GCGGTGGAAGTAGCAACAGCGGTTCTAGCGGCAGCGGCG (ssDNA) [39-nt experimental oligo (ssDNA)],binding result,no binding
